# B1: M14-C03.G4.P: full-length human IgG4.P version of Fab M14-C03 (antibody, V domains shown)
# VH: EVQLLESGGGLVQPGGSLRLSCAASGFTFSKYMMSWVRQAPGKGLEWVSYISPSGGLTWYADSVKGRFTISRDNSKNTLYLQMNSLRAEDTAVYYCARDGARGYGMDVWGQGTTVTVSS
# VL: DIQMTQSPATLSLSPGERATLSCRASQSVSSYLAWYQQKPGQAPRLLIYDASNRATGIPARFSGSGSGTDFTLTISSLEPEDFAVYYCQQRSNWPPEVTFGPGTKVDIK
# B2: M12-G04.G4.P: full-length human IgG4.P version of Fab M12-G04 (antibody, V domains shown)
# VH: EVQLLESGGGLVQPGGSLRLSCAASGFTFSKYTMHWVRQAPGKGLEWVSSIVSSGGWTDYADSVKGRFTISRDNSKNTLYLQMNSLRAEDTAVYYCARDRSIAAAGTGWSVSFVDWFDPWGQGTLVTVSS
# VL: DIQMTQSPLSLSASVGDRVTITCRASQSINGYLNWYQQKPGKAPNLLIYATSSLQSGVPSRFSGSGSGTDFTLTISSLQPEDFATYYCQQSYSTPPYTFGQGTKLEIK
# B3: Fab M12-G04: human anti-human IGF-1R Fab from phage display library; VH SEQ ID NO:9, VL SEQ ID NO:73 (antibody, V domains shown)
# VH: B2 VH
# VL: B2 VL
# modifications: Antibody variable heavy chain sequence; Antibody variable light chain sequence
# B4: M12-E01.G4.P: full-length human IgG4.P version of Fab M12-E01 (antibody, V domains shown)
# VH: EVQLLESGGGLVQPGGSLRLSCAASGFTFSPYSMLWVRQAPGKGLEWVSSIGSSGGSTRYADSVKGRFTISRDNSKNTLYLQMNSLRAEDTAMYYCARVRGILHYDILIGRNLYYYYMDVWGKGTTVTVSS
# VL: QYELTQPPSVSEAPRQRVTISCSGSSSNIGNNAINWYQQLPGKPPKLLIYYDDLLPSGVSDRFSGSKSGTSGSLAISGLQSEDEADYYCAAWDDNLNGVIFGGGTKLTVL
# B5: Fab M14-B01: human anti-human IGF-1R Fab from phage display library; VH SEQ ID NO:20, VL SEQ ID NO:83 (antibody, V domains shown)
# VH: EVQLLESGGGLVQPGGSLRLSCAASGFTFSNYHMAWVRQAPGKGLEWVSVISPTGGRTTYADSVKGRFTISRDNSKNTLYLQMNSLRAEDTATYYCARAGYSYGYGYFDYWGQGTLVTVSS
# VL: DIQMTQFPATLSVSPGERATLSCRASQSVMRNLAWYQQKPGQPPRLLIYGASKRATGIPARFSGSGSGTAFTLTISNLEPEDFAVYYCHQRSTWPLGTFGPGTKLEAK
# modifications: Antibody variable heavy chain sequence; Antibody variable light chain sequence
# What was measured:
# [1] = target: T1, IGF-1R (Homo sapiens, UniProt P08069); experiment: Ligand blocking assay (RIA): 125I-IGF-1 / 125I-IGF-2 binding to immobilized IGF-1R; settings: for blocking of IGF-1 and IGF-2 binding to IGF-1R: 100 nM-0.01 nM antibody, IGF-1R-Fc; for IGF Blocking IGF-1 / IGF Blocking IGF-2: Fabs; for IGF Blocking IGF-1: 125I-IGF-1; for IGF Blocking IGF-2: 125I-IGF-2
# T1 construct: human IGF-1R(1-903)-Fc (denoted hIGF-1R-Fc, generated by Biogen Idec)
# From the text: Ligand blocking assay (RIA). […] Insulin (Arg-Insulin, Cat #01-207) was purchased from Upstate Cell Signaling Solutions (Lake Placid, N.Y. (now part of Millipore, Concord, Mass. (USA)). ^125I-rhIGF-1 (Cat # IM172), ^125I-rhIGF-2 (Cat# IM238) and ^125I-rhInsulin (Cat# IM166) were purchased from Amersham Biosciences (Piscataway, N.J.). AffiPure goat anti-human IgG, Fcγ fragment specific antibodies (Cat #109-005-098, Jackson ImmunoResearch, West Grove, Pa.) was used for IGF-1R-Fc capture. As detection antibody, goat anti-mouse IgG HRP (Cat #1030-05, Southern Biotech Birmingham, Ala.) was used.
# Human insulin receptor α-subunit specific antibodies, Clone 83-14, (Cat #AHR0221, Biosource International, Inc., Camarillo, Calif.) and the 47-9 (Cat #E55502M, Biodesign International, Saco, M E) were used as positive controls blocking of insulin-insulin receptor binding experiments. Recombinant IGF-1R-Fc fusion protein was produced at Biogen Idec (Cambridge, Mass.).
# As isotype matched mouse negative control antibodies, 2B8 (murine α-CD20.1gG,) and 2B8 mkm.G2a (murine α-CD20 MAb, IgG2a, Biogen Idec, Lot #NB3304-87, San Diego, Calif.) were used. The negative control for Fabs was R001-1B provided by Christilyn Graff (Biogen Idec, Cambridge, Mass.). PBS used in buffers was from BioWhittaker (Cat. # 17-513F, Walkersville, Md.).
# Recombinant human IGF-1R (Histidine tagged version) or IGF-1R-Fc was coated onto IMMULON2 HB (high binding) Removawell strips (Dynex Technologies, Inc., cat. #6302) diluted with carbonate coating buffer pH 9.5 to a concentration of 250 ng/well. After overnight incubation at 4° C., the wells were washed three times with washing buffer (0.05% Tween 20/PBS) then blocked with blocking buffer (3% BSA/PBS) for one hour at room temperature. The blocking buffer was removed and the wells washed three more times. Antibody, Fab, or ligand preparations were diluted to desired concentration with dilution buffer (1% BSA/0.05% Tween 20/PBS) and plated at 50 μl per well in duplicate. After 45 minutes at room temperature, 100,000 cpm of either [125I] rhIGF-1 or [125I] rhIGF-2 in 50 μl dilution buffer was added per well. This was incubated at room temperature for one more hour. The wells were washed again three more times and left liquid free after the last wash. The air-dried wells were counted with the Isodata Gamma Counter.
# Alternatively, Fabs were evaluated by a modified capture assay, where the IGF-1R-Fc was captured using anti-human IgG immobilized to a plate. Immobilization was carried out by overnight incubation of goat anti-human IgG, Fcγ fragment specific antibody (200 ng/well) in carbonate coating buffer. The wells were washed, blocked and 250 ng of IGF-1R-Fc was added per well.
# The ligand blocking ability of the anti-IGF-1R antibody was determined by a solid phase RIA capture method as described in Example 3. […] After 1 hour of incubation at room temperature, the wells were washed and counted for bound radioactivity by a Gamma Counter. An isotype matched negative antibody control, IDEC-151 (human G4), was used. Percent (%) inhibition was calculated as =[1−(Ave.CPM with Ab)/(Ave.CPM with buffer)]×100%.
# [2] = target: T2, IGF-1R phosphorylation (Homo sapiens, UniProt P08069); experiment: Inhibition of IGF-1 and IGF-2 mediated IGF-1R phosphorylation in MCF-7 cells (ELISA); type: cell-based; settings: Fabs, MCF-7; for Inhibition of IGF-1R Phosphorylation IGF-1: IGF-1 stimulated; for Inhibition of IGF-1R Phosphorylation IGF-2: IGF-2 stimulated
# T2 construct: wild type IGF-1R expressed on MCF-7 tumor cells; endogenous in cells; host or cells: MCF-7
# Method: Cell lines: IGF1R expressing human breast carcinoma cell line MCF-7 (NCI) were maintained at 37° C. and 5% CO2 in MEM eagle (ATCC) containing 10% FBS, 1× non-essential amino acids, 2 mM L-glutamine, 1 mM sodium pyruvate and 1000 U/ml penicillin and streptomycin. Cells were sub-cultured twice weekly for maintenance and assay, and used with a maximum of 12 passages.
# MCF-7 cells were plated in 2 ml growth media at 2×10^5 to 4.0×10^5 cells/well in Ploy-D-Lysine coated 12 well plates (BD Biosciences, #35-6470) and cultured at 37° C., 5% CO2. At 48 hours, media removed and cells serum starved overnight at 37° C., 5% CO2 Serum free media was removed and control or test antibodies at indicated concentration were added in 350 ul of fresh serum free media and incubated for 1 hour at room temperature, or alternately at 37° C. Fabs were tested at 200 nM, 20 nM and 2 nM concentration and the mAbs were tested at 67, 6.7 and 0.67 nM. The commercial anti-IGF-1R control antibody used was αIR3 (EMD biosciences, Oncogene Research products, #D27249). […] Ligand was incubated at […] for 37° C. antibody experiments. Cells were lysed in 1× cell lysis buffer (Cell Signal Technologies, #9803) with 1 mM PMSF for 1 hour at room temperature.
# Cell lysates were added to ELISA plates pre-coated with IGF-1Rp antibody (Clone 1-2, Biosource International, #AHR0361) and incubated for 2 hours. Following which plates were washed and the plate bound phosphorylated receptor was detected with the biotin labeled anti-phosphotyrosine antibody 4G10 (Catalog #16-103, Upstate Cell Signaling Solutions (Lake Placid, N.Y. (now part of Millipore, Concord, Mass. (USA)) and streptavidin-HRP (BD Pharmingen, #554066). Assay is developed by addition of TMB substrate (Kierkegaard & Perry, #50-76-00) and color stopped by addition of […] (LabChem, Cat#LC25830-1). Optical density is measured at 450 nm using a Molecular Devices plate reader and percent inhibition over the ligand control is calculated for each antibody-ligand sample.
# The effect of human anti-IGF-1R antibodies on IGF-1R signaling was evaluated using MCF-7 cells (human breast adenocarcinoma cells).
Molecule,blocking of IGF-1 and IGF-2 binding to IGF-1R [1],Inhibition of IGF-1R Phosphorylation IGF-1 [2],Inhibition of IGF-1R Phosphorylation IGF-2 [2],IGF Blocking IGF-1 [1],IGF Blocking IGF-2 [1]
B1,blocked only IGF-2 binding,,,,
B2,block both IGF-1 and IGF-2 binding,,,,
B3,,+ (>30%@10 ug/ml),+ (>30%@10 ug/ml),+ (>30%@10ug/ml),+ (>30%@10ug/ml)
B4,block both IGF-1 and IGF-2 binding,,,,
B5,,++ (>30%@1ug/ml),++ (>30%@1ug/ml),++ (>30%@1ug/ml),++ (>30%@1ug/ml)
